# Test: soluble fraction after stress (log2 fold change); higher = more stays soluble; pooled small domains, quantitative proteomics
# Conditions: stress: 50 degC
# Procedure, shortened: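 After stress at 50°C, the amount of each protein still soluble was measured. This was done on pooled custom libraries of small protein domains, using high-throughput quantitative proteomics. The figure given is a base-two log fold change and stands for aggregation propensity, with higher values meaning more protein stays in solution.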
row,Sequence,soluble fraction (log2)
1,HMSNHYETLGVEQTASVDEIKKAYRRLSLQYHPDRNTTSDAVGKFQKINDAHEILSDKQSRTEYDMQLK,0.214
2,HMYFGNSLFQARKRSGLSQEGVAEKLGVSRQTVSKWETGETVPDIYQSKKMARLYGVSLDEL,0.0951
3,HMDQVLHQLVEVLRRSEIRISPAETLDAFKVLRNVGIDNKSLLREALALTLAKSIHEKIIFYETFDEFFT,-1.16
4,HMGVSLNELAYRRFKQALVTLSYKPGEYLNTAQVMNDLDMGRTPINQAIHRLANEGLLQVIPRKGVMVS,-1.79
5,HMELEQLKSQLTGFLKANREQIFTAQNLADGLRMTDSQGYKQVVNALNASVRDGDVIDIKNGYQYNKN,0.0729
6,HMIETIIGAEGKVLETIDNFNQKGVVALAGKEWTARSADASIIPEGAKVSVVEISGVKLIVTQN,0.067
7,HMDFEEGAVKWFNTKKGYGFITRDQGDDIFVHFRNIKAQSRRSLTDGERVTFVVTEGDKGLQADHVSPV,-0.31
8,HMSENEVQAKVKEIVDRYAGDKSALIAILQDVQDEYRYLPKEALVSIQQQMNIPLSRVYEVATFYDAFS,-0.424
9,HMVSIGSQVAKRRRELRLTQQNLAEKMGVSFQAISSWEREEFLPDINKLQKLAAILNTKISYLLEE,-1.3
10,HMGISNEETFLLEKMSSGRRYSRKELDNLMGFEKTKTIRLLGSLINKGLVVAEGVNRARRYIR,-1.12
11,HMNEIYHQIKVDNVSDDDISLFQYSGIEFDHADYRRGEYIEFAISNRDLSILNNLGYEYQVVHH,-0.757
12,HMLPERIQTIVALIGHGRAMDLVREFGGQEIKFPAQEGNDTWAALVEVIGEAATRKLAAVFGGGQAPPVYI,-0.778
13,HMEDPFLWVEKLGSSDWIEREESAEKLLEAGEASVEALRTALTHPDLEVRERVRELLSVISPL,-0.104
14,HMTVTLTTLRNGSTGAQVKTLQRLLSAMDYYNGETDGKFGISTAAAVKAFQRAKRLTVDGIVGKNTWTALL,-1.18
15,HMKVTRWEDTGMKPAEAQEWQHYDFKPQEAMNWRDAGFVPLVARTWSDKGFDASEAQAWRDSVRNS,-0.19
16,HMRKIFPFNPNFITDQRGYFLGMSTSEIDRLHHFRAANKWIQSAQEFQVVTKVSNAWLSEFSPYFNFP,-3.39
17,HMLENYEGFKQKILKLTGIDLSSYKERQMRRRIDSLIHRNNYDDYDEYFKALTQNSNLYDEFINYLTI,-0.539
18,HMTTLDTVARQLRDRIREQLDPTGEMSDESLLRTIEEAVYRYSSSGHVLTANEKETVIRRIFHSFR,0.0252
19,HMRGDEDTGVWPTPMKRAYIDSLLKGYPTGVTMIVKPPGASHTTKWMILDGANRARALRDFMNDEFMI,-0.163
20,HMIHFDHPERSILDTMLYEKKGMTAQSARNRLAAYQFQGEDVFKPVSVLSGGELSRITLAIKNAMADK,-0.186
21,HMSILEIFGRNVQKYRKEQRLSQEKLAEYAGLHRTYIGMIERAEKNITLVNIEKIAKALNINLTKLLE,-3.14
22,HMSLSDDIAQTLRQLGFDRDVSETLANDVLPAMPTRQDVIDLLGTLGIEKHVAADFANFVVLN,-0.723
23,HMGSDQEAAMARQDRLSTLVDYVVERGSVHVDDIVADLGVSPATVRRDLDALAAQQLIIRTRGGATANHT,0.0263
24,HMNNKVAVKSGYYFELFDKDEIPATLEKMKQKVKIDNIKYDLYQGTSLEDERKIDTMFGEKMGYSIDDYI,0.0224
25,HMPGGLSAEDVEKMVEKVLTVNGDVVEEIRSGRDPKGKKIKFLAGLVMRDARGQADAAAVSGILERRLKEG,0.133
26,HMNNWYESSIKSLVEEYFREHGFSVVFDSSEFWDVFIEKYHKQIPSSQIALFDQVAAEARSYAFNKK,0.116

row,Sequence,soluble fraction (log2)
1,HMDAGLAEIIRSFEDNLGGFPPAAREDLLGWREIFTDDLILLAIKKAALAGVRKWSYVNGILKVWKNEGVR,-0.742
2,HMVANLPFNYKVYAKKGKLYVVISYKDSNGKYKKKWIRTGLDEGTKKKEVNTVADQIAAEYYSSMRLE,-1.54
3,HMVVTRVKAIDVVNIRKSDSETADKLGKAAVGDEFDLLEKKGNGWSKISYEGGEAYIKSEFLEPSE,0.145
4,HMRIDSFEDARRRFEYDYLTRLLKLTQGSVTQAAKLAKRNRTEFYKLLQRHGIEAAHFKPTS,-0.581
5,HMDLEELSNKMNNVFESLSSDLRDIIIMSDIEGLSYEEISHKINIPIGTVRSRLHRARDLMVRVIKEN,-0.513
6,HMFQNPSQVVTTRVGELRAAIPTAQQGRITMGVAVVEDANSVRSVLISTSEPRGYLRPGVTLGPGETMV,0.0203
7,HMGGKWKAIIIYHLKNGPKRFGELRRALISSTETVLSNQLKQLEQDGLVSRQVFGTKPPLKTVYSLTDFG,-3.06
8,HMLAMHVVESVGGAEQFTKLQNFAKTQNADYQKMWNDTMNSGNVLAIKTMLSGIQSDMIAVQ,-0.16
9,HMTAPQAQDYARVPDVLGLDMRESAQALRLDGFEMNAQGDGLAARQSPIGGSYAPEGTQVLVTFEM,0.102
10,HMVYVPTKAEVSQQFQDASKARFDERYAIVELADGRRTMAPLAFLTKADHAWLKQLASTSPLPKGK,0.0196
11,HMIGDYALILNIKGGSDWYLGNRVELLFTDGTSKIVTTDKDYNAKKDMVPTQIVTYKVNDNGEYSLKALPT,-2.01
12,HMIEEIPYSQFMSMLEEGKIDKAEIYQDSIIFSTKPDEQGKAGYYSIAYMKDNVLADRLYDAGVEFTPII,-0.156
13,HMFVEKDSIINKGNNSYNFVITDNNNKVLVEYNGLLPDLFKEEQGVVIEGRLKSDFIIHAFTVF,-0.209
14,HMMQEIKLEVINNEELRIDNYINLAGIGLSRSYIQKLIKDGVILVNGKEVKSSYKVSLGDIISVQIPDPG,0.299
15,HMAEQEELDAIRPDLDGQEIMDILGIKPGREVGAARNFLLELRLDEGPLGYDEAVSRLLTWWAERT,-0.13
16,HMDDSSLFGRHTGIGFIVDDIDSGYQTLLAKGVSFEMPPTEQPWGGILALMKDPDGNIFYLD,-0.0639
17,HMPKNRTDYVQDVLKSLGRPAHYKEITQIINAMLPKEAQYSAKSIQVVLGSSPLFIRVGTGTYALVE,-0.679
18,HMTSLTSDEEQIINVLRAEESVYINALATKSKIPLQKLLGLLIQLEFKGLIHSLPGSHYKIV,-0.138
19,HMFPDLTEDEQLIVDVLQRTGDLQINSLIVEANIPVNKMSEILFELEMKGVIRTLAGGVYQLL,-1.46
20,HMNTIIHPIRLAYVDSGSIKSMAEQAEIDVKILTSEANSQIFWAIGDEKQIDRLYNLISQVDIIQNK,-0.211
21,HMKYNGDRPVFNDDVAWAKWMLENPAKITSHDKENLSSMLKKPEVVMLFEAEDLSVPDLRTLAKE,0.236
22,HMSGLLTTSKLAQKHKMKTEPMLEKLTAAGYLEWRDDKHSLTEQGKKAGGQFKTGRFGAYFLWPEDLV,-0.259
23,HMLADTNIHTIALKHRLANEVVEQVRPFLPETATIRAYDNMLILKSDRATLANVEQLIKKLDT,0.0983
24,HMENSYSVEDLALKAAISVDTIRYYQGLGLISPPQKNGRRAIYGNDHISRLEEIKKLAFEGFSLRQISLL,-0.224
25,HMSSGSLLTEREIEILAEMAKGLTNKAIGEKLFISVATVKTHILNIYRKLEVSSRVTAVNKAKQMRL,-1.93
26,HMKPSNRSYPTALRMEVIGIIRERYADFGPTLAGEKLAELHGIHLGRETIRQWMMAAGLWKDRR,-0.825

row,Sequence,soluble fraction (log2)
1,HMLRNDEAVMLGRRLLNKHLQAFSVQIKDISHQRIHDLLDELELESLDHLLDDIGLGNRSVFLVAQKLLQ,-1.39
2,HMNSNQESFENWLSANSWYNKDRAMRVFADSLGQELRNSGVSFEKALTQISAEVRKEFSHKFQ,-0.163
3,HMETINERVNSIIEREGHTVATFAKKIGVPWTTIKNIVSGRNAPSYDIMVKIINAVDWVDANYLVMG,-1.98
4,HMKTDLQIQQDVMAELKWEPKVNAAHIGVEVKHGVVTLSGHVDSFAEKWNAEQAAKRVAGVKFIAIELDV,-1.67
5,HMNVVDTGTDANYRVKISAVNLNMRLGPSTSYKSKGYITPGNYTIIKTSGDWGKVKETGYWVALKYTSKIN,-1.06
6,HMGVKTDKYYYQMATETRVNKHYGLSNQYIATLISEYPRSPLIPNASILSKKNNADLALIDQSINQR,-0.397
7,HMETADREILLREIREIINERVDYNKDITDDEMKELVMNTVFERSRQQYMSIQDKQEIIQAIFNSMR,0.126
8,HMANTAKVNVDTANLRETADENSKILKQLSLNDNLEVVEETGDWYKVKNSNVTGYVRKDLVTVEN,0.371
9,HMAITVPEGATLSDAAVLLKQAGAVRSADAFLTRAKVFGGSTPIKAGEFVIPVQASNKDILAILQGGK,0.021
10,HMRAVPTKLAPFVEVLKAMLEADGHRPKAQRRTAKALHLELISRGYAGGYTRLTDYIRDWRQQQG,-2.34
11,HMSDFDPTLILDLIKGSGEALTKREIARALGIKGGDKRIELKSHLKSMEAEGVIVKQAGGAYSVP,-0.122
12,HMHSLLDDIPNVGEKRKRILLTHFQSLEEIKAATVEELERLPQINRKAAESIYTFFHSQPIR,-0.0679
13,HMKVPDVQYMNKDSAIEALTANELKYTIVEAENENVAAGVVISQSVERDSQVAPGTSVELVVSTG,0.0357
14,HMLNKRQAEILAEVSRLKEITPSELYKLQPNVSSRTLRRDMDVLVNKGLVSQDGSTKSTKYTYL,0.23
15,HMFPNQLLISRLSNQLSASERFAAVSSIAQLKNIDYDVLHVLVHTMNSDPNSNVRLAALEALSR,-0.529
16,HMEVSKETFPAYVAVDSLPVYKSASTSSSKVTTIDFGREVTVVETRGGWAKIQYGSYKGFAEIEGMSKN,-0.368
17,HMGMETQLSPKEKSIYTIIQNRPNIQSGEVSEKLAIPLPTVKRILSDLINKGLIEKQGSGRNVSYTI,0.254
18,HMSATVLVHVLGEVRKPGVVSLPEGSRVQDAITAAGGLTSRAKPGDLNLAARVSDGAQLVIGRSGSQVRTT,-0.0286
19,HMTTQVNTVKIQLANGYEMTVLTSKTNVKEILEDNNIILENNEKVTPNIDEEISSNKTIKITDKSN,0.146
20,HMIGIEALAGEIDRVRQVLTGGGGLSDVQLFSQLKALNEIKAALGASPDPRAPELVQRVDQLLEAAFRS,-0.0467
21,HMSLSEYLSAPVLEGQRNHALFSAVMQAREQGWDEWQIRTTIGAKAEADGLRHAEIAATIRSAMSREITP,-0.121
22,HMSKIRTFRVKTVAVDQAYQVLKDYSPIKISTESNAVIIDLDESKTPAEIAGYLEKNGIKVDNIEVIAESE,0.179
23,HMSPSLVEAMRLRMYEMGLNQAKLSELLGVSPSRVSDYLTGRSEPTLKVARDISRKLNIDASIVLG,-1.07
24,HMDTFNVIARQEIDGILYEYKIMTVEDYKNQSPENLAVIYENIKAVMEQYDLSEDDADAILVDLLG,-1.12

# Source: the domain aggregation screens of Martell et al. (2025)
